Measurements taken from patent US6027884.

These sequences were tested on Alu I restriction endonuclease (assay: cleavage_in_vitro). Conditions: first strand cleavage rate constant; 13 uM (AT)2 competitor.
Work on “ATATATATAGCTATATATAT (double strand) [(AT)4 AGCT(AT)4]” yielded an activity of 0.0093 min⁻¹.
“AAATATAGCTATATTT (double strand) [(AA)(AT)2 AGCT(AT)2 TT]” showed an activity of 0.0077 min⁻¹.
In the case of “ATATATAGCTATATAT (double strand) [(AT)3 AGCT(AT)3]”, the activity is reported as 0.0115 min⁻¹.
For “AAAAAAAAAGCTTTTTTTTT (double strand) [(AA)4 AGCT(TT)4]”, the activity was 0.0031 min⁻¹.
For “AAAAAGCTTTTT (double strand) [(AA)2 AGCT(TT)2]”, the activity was 0.0063 min⁻¹.
“AAAAAAAGCTTTTTTT (double strand) [(AA)3 AGCT(TT)3]” was tested, and the activity was 0.0039 min⁻¹.

Same assay, conditions: first strand cleavage rate constant; 13 uM (AT)2 competitor, 95 nM labeled duplex
With “ATATAGCTATAT (double strand) [(AT)2 AGCT(AT)2]” the activity was 0.019 min⁻¹.
